Molecular target: human NDPK-A (nucleoside diphosphate kinase A), full-length recombinant
Sequence (chain, as listed by the source): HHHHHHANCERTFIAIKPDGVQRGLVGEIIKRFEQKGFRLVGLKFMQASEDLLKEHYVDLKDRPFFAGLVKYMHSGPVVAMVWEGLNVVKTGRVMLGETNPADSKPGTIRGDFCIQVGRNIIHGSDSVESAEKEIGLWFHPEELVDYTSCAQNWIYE

B1: human ADK (adenosine kinase), recombinant (protein)
chain: AAAEEEPKPKKLKVEAPQALRENILFGMGNPLLDISAVVDKDFLDKYSLKPNDQILAEDKHKELFDELVKKFKVEYHAGGSTQNSIKVAQWMIQQPHKAATFFGCIGIDKFGEILKRKAAEAHVDAHYYEQNEQPTGTCAACITGDNRSLIANLAAANCYKKEKHLDLEKNWMLVEKARVCYIAGFFLTVSPESVLKVAHHASENNRIFTLNLSAPFISQFYKESLMKVMPYVDILFGNETEAATFAREQGFETKDIKEIAKKTQALPKMNSKRQRIVIFTQGRDDTIMATESEVTAFAVLDQDQKEIIDTNGAGDAFVGGFLSQLVSDKPLTECIRAGHYAASIIIRRTGCTFPEKPDFH
  activity of recombinant NDPK to generate ADP (ADP-Glo): addition of recombinant ADK significantly reduced the activity of NDPK to generate ADP

From patent publication US20230203142
